In publication PMC4357719, “Roles of Rad51 paralogs for promoting homologous recombination in Leishmania infantum”:

Assays:
Experiment in all cases: competition EMSA; preferred substrate in mixture; 25 mM MOPS pH 7.0, 0.2% Tween-20, 1 mM CaCl2, 2 mM DTT; 25 nM 32P-DNA; 37 C 10 min, then 0.2% glutaraldehyde 15 min; 8% TBE acrylamide gel
Settings in all cases: protein: recombinant; tags: C-terminal 10xHis; N-terminal GST cleaved with PreScission; label: 32P on strand 3 (JYM1745); D-loop: 1:2 with unpaired bubble, 3 paired to 2 in the bubble
LiRad51-4 = molecular target: T1, LiRad51-4 (Leishmania infantum, UniProt A4HUT5 1-518)
T1 sequence: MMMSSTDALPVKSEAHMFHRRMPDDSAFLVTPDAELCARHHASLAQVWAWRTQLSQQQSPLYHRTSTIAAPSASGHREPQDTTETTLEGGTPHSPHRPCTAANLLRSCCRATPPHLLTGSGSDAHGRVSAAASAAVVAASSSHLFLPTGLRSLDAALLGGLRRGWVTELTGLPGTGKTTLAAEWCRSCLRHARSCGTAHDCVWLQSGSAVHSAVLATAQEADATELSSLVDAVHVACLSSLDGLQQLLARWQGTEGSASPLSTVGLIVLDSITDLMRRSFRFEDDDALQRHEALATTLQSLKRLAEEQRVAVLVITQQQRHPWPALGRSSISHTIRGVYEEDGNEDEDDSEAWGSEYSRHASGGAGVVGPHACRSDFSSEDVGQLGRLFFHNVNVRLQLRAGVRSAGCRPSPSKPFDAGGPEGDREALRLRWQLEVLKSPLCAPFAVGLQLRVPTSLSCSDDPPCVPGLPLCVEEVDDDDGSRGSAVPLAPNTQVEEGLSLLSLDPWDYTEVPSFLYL

LiRad51-6 = molecular target: T2, LiRad51-6 (Leishmania infantum, UniProt A4I499 1-649)
T2 sequence: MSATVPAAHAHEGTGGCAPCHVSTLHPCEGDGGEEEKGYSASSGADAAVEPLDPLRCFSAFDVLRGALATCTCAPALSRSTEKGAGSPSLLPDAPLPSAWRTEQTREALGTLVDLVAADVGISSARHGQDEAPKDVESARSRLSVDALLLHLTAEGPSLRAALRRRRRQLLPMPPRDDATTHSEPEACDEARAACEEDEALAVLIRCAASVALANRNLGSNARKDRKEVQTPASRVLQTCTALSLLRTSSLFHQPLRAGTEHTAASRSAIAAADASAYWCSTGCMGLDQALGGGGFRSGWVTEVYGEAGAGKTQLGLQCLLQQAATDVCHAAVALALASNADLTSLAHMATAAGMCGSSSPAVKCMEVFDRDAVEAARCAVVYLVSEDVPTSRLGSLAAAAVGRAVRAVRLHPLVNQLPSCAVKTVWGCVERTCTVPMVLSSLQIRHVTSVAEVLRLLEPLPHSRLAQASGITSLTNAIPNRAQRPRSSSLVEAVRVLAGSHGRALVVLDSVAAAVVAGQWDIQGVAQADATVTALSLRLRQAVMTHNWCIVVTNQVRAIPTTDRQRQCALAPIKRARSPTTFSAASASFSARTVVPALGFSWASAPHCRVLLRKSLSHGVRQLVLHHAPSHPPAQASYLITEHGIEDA

LiRad51-3 = molecular target: T3, LiRad51-3 (Leishmania infantum, UniProt E9AHR7 1-687)
T3 sequence: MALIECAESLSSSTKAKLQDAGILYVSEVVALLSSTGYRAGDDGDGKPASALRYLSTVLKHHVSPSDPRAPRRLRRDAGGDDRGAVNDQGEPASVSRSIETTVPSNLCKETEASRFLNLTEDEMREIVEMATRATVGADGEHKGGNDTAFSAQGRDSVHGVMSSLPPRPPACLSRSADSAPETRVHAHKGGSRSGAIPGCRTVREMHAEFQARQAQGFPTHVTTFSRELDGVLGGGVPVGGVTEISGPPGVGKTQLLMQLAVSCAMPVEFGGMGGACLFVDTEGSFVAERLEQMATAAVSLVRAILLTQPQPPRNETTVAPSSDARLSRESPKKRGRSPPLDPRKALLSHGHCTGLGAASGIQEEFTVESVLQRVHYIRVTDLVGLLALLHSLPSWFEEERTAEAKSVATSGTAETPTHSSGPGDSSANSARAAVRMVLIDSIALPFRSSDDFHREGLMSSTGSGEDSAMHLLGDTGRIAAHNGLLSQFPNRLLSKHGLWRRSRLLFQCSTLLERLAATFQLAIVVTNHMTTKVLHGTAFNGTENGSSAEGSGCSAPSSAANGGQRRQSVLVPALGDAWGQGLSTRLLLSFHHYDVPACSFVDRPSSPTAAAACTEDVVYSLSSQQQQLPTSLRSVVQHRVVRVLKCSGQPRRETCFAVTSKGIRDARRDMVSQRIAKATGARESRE

Measured: binding result

B1: D-loop (JYM1395/JYM1396/JYM1745) (structured_DNA)
DNA 1: GCCAGGGACGGGGTGAACCTGCAGGTGGGCGGCTGCTCATCGTAGGTTAGTATCGACCTATTGGTAGAATTCGGCAGCGTCATGCGACGGC
DNA 2: GCCGTCGCATGACGCTGCCGAATTCTACCACGCTACTAGGGTGCCTTGCTAGGACATCTTTGCCCACCTGCAGGTTCACCCCGTCCCTGGC
DNA 3: AAGATGTCCTAGCAAGGCACCCTAGTAGC
binds: all assays above
